Laboratory results: US20200123558A1 (UNIVERSITY OF SASKATCHEWAN AND NATIONAL RESEARCH COUNCIL OF …, published 2020)
Where two headings read alike, the source gives them in different places.

T1: Apc10 (yeast, UniProt P53068 1-250, limits assumed)
T1 construct: Expressed as a Y2H bait fusion; also called yeast Apc10 APC subunit; Apc10 bait
T1 sequence (looked up): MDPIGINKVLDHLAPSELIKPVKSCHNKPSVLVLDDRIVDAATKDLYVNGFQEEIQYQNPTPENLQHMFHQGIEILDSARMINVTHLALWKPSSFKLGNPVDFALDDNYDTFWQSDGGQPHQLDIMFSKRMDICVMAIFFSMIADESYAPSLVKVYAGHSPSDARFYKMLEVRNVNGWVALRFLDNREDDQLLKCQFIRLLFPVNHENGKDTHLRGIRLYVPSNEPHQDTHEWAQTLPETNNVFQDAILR

T2: Apc5 (yeast, UniProt Q08683 1-685, limits assumed)
T2 construct: Expressed as a Y2H bait fusion; also called Apc5 bait
T2 sequence (looked up): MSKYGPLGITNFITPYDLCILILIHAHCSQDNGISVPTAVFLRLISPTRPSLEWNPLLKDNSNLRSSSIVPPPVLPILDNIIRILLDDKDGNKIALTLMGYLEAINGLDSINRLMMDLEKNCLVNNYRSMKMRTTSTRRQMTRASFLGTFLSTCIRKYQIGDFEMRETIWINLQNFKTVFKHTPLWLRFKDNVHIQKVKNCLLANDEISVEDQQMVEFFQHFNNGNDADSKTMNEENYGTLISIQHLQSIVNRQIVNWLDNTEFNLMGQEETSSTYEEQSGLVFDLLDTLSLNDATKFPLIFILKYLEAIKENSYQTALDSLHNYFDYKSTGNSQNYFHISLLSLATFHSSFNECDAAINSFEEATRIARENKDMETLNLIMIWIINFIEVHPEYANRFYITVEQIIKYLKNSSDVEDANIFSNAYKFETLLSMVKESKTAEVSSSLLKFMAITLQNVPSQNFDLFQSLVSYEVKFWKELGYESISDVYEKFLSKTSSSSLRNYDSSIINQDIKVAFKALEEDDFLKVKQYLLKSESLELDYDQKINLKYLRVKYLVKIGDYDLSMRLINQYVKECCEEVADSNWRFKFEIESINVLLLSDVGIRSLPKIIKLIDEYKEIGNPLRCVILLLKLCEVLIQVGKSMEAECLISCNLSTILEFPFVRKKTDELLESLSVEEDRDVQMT

B1: peptide C43-4 (peptide)
peptide: NGSSHNDLRVRRLTLISRLC
modifications: Shown in the assay as the variable loop of a Trx scaffold fused to a Y2H prey domain. The letters do not carry this.
notes: also called C43-4 aptamer; Htz1-like peptide; not shown: Thioredoxin (TrxA) scaffold flanking the loop and the Y2H prey fusion domain
B2: peptide C43-4-3 (peptide, not shown: large carriers)
peptide: NGSSHNDARVRRLTLISRLC
modifications: Presumably shown in the Trx scaffold like its parent. The letters do not carry this.
notes: C43-4 with leucine 8 replaced by alanine; also called C43-L8A
B3: peptide 24-1 (peptide)
peptide: SKWTWRMCMSWTVDRFAPVPWP
modifications: Displayed in the assay as the variable loop of a TrxA scaffold fused to a Y2H prey domain; carrier not written.
notes: not shown: TrxA (thioredoxin) scaffold halves flanking the loop and the Y2H prey fusion domain
B4: peptide 1-8 (peptide)
peptide: GRMLMTYLMYFMVLWVPRPWGPPL
modifications: Displayed in the assay as the variable loop of a TrxA scaffold fused to a Y2H prey domain; carrier not written.
notes: as for B3
B5: peptide 50-1 (peptide)
peptide: RRCLSIRTENLAWEGKFLRV
modifications: Displayed in the assay as the variable loop of a TrxA scaffold fused to a Y2H prey domain; carrier not written.
notes: as for B3
B6: peptide C2-4B (peptide)
peptide: RMPQWWQWMWV
modifications: Shown as the variable loop of the Trx scaffold on a Y2H prey vector. The letters do not carry this.
notes: also called 11-3; C2-4B aptamer; not shown: TrxA scaffold and Y2H fusion domain

Legend:
Assay in all cases: yeast 2-hybrid
Apc10 [1] = biological target: T1, Apc10
Apc10 [2] = biological target: T1, Apc10; remark: listed apart in the source
Apc5 = biological target: T2, Apc5

Binder | binding result (Apc10 [1]) | binding result (Apc5) | other results
B1 | binds | – | –
B2 | – | – | binding result (Apc10 [2]): binds
B3 | – | binds | –
B4 | binds | – | –
B5 | binds | – | –
B6 | – | binds | –
